In patent publication US20260374828:

The binders below were run against Keap1 Kelch domain, Q14145 (assay: other TR-FRET). Details: modification not given.
Sequence of Keap1 Kelch domain, Q14145 (Q14145 whole entry, the tested form may be a part): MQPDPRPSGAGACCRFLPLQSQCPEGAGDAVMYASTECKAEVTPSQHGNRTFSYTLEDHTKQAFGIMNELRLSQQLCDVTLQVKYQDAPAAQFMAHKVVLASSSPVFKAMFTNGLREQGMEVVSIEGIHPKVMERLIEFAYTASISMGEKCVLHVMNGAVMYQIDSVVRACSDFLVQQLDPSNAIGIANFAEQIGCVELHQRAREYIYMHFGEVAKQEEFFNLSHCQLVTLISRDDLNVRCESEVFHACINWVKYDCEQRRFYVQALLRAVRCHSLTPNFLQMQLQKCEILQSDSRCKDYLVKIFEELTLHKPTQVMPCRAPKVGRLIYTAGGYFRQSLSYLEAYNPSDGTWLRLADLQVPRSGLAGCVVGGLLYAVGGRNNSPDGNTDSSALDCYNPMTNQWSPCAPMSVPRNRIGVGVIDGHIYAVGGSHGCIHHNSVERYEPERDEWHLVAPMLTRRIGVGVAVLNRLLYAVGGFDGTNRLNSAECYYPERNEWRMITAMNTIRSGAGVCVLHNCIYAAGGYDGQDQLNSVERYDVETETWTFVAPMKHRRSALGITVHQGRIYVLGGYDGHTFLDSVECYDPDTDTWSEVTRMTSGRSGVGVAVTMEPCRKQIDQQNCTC

| Binder | IC50 [nM] |
| --- | --- |
| RRDELEPLTGFRR [Peptide 1-3] | 38.8 |
| DELEPLTGFRR [Peptide 1-7] | 6.2 |
| RDELEPLTGFRRR [Peptide 1-9] | 14.7 |
| DELEPLTGFRRR [Peptide 1-8] | 40.4 |
